The results in this text go back to patent US20220324957A1 (OPSIDIO, published 2022).

B1: murine 5H10 antibody (antibody, V domains shown)
VH: QVQLQQSGAELVRPGSSVKISCKSSGYAFSSYWMNWVKQRPGQGLEWIGQIYPGDGDTHYNGKFKGKATLTADKSSSTAYMQLSRLTSEDSAVYFCSSSNWVGSYWGQGTLVTVSA
VL: not shown
notes: Mouse hybridoma monoclonal with a kappa light chain; It was conjugated to a fluorescent marker for flow cytometry and to pHrodo red for the internalisation assay; also called OpSCF; m5H10
B2: humanized 5H10 VH3/VK3 (antibody, human IgG4, V domains shown)
VH: QVQLVQSGAEVKKPGSSVKVSCKSSGYAFSSYWMNWVRQRPGQGLEWIGQIYPGDGDTHYNGKFKGKATLTADKSTSTAYMELSSLRSEDTAVYFCSSSNWVGSYWGQGTLVTVSS
VL: DVVMTQSPLSLPVTLGQPASISCKSSQSLLESDGKTYLNWLQQRPGQSPRRLIYLVSRLDSGVPDRFSGSGSGTDFTLKISRVEAEDVGVYYCWQGTHLPQTFGGGTKVEIK
notes: Only variable domains are tied to the name; Humanized from the chimeric antibody, which has a human IgG4 backbone and a kappa light chain
B3: humanized 5H10 VH4/VK3 (antibody, human IgG4, V domains shown)
VH: QVQLVQSGAEVKKPGSSVKVSCKSSGYAFSSYWMNWVRQRPGQGLEWIGQIYPGDGDTHYNGKFKGRVTITADKSTSTAYMELSSLRSEDTAVYFCSSSNWVGSYWGQGTLVTVSS
VL: DVVMTQSPLSLPVTLGQPASISCKSSQSLLESDGKTYLNWLQQRPGQSPRRLIYLVSRLDSGVPDRFSGSGSGTDFTLKISRVEAEDVGVYYCWQGTHLPQTFGGGTKVEIK
notes: as for B2
B4: humanized 5H10 VH1/VK3 (antibody, human IgG4, V domains shown)
VH: QVQLVQSGAELKKPGSSVKISCKSSGYAFSSYWMNWVKQRPGQGLEWIGQIYPGDGDTHYNGKFKGKATLTADKSTSTAYMELSSLTSEDSAVYFCSSSNWVGSYWGQGTLVTVSS
VL: DVVMTQSPLSLPVTLGQPASISCKSSQSLLESDGKTYLNWLQQRPGQSPRRLIYLVSRLDSGVPDRFSGSGSGTDFTLKISRVEAEDVGVYYCWQGTHLPQTFGGGTKVEIK
notes: as for B2
B5: 5H10 VH0/VK0 (chimeric) (antibody, V domains shown)
VH: QVQLQQSGAELVRPGSSVKISCKSSGYAFSSYWMNWVKQRPGQGLEWIGQIYPGDGDTHYNGKFKGKATLTADKSSSTAYMQLSRLTSEDSAVYFCSSSNWVGSYWGQGTLVTVSA
VL: not shown
notes: also called chimeric 5H10
B6: humanized 5H10 VH3/VK2 (antibody, human IgG4, V domains shown)
VH: QVQLVQSGAEVKKPGSSVKVSCKSSGYAFSSYWMNWVRQRPGQGLEWIGQIYPGDGDTHYNGKFKGKATLTADKSTSTAYMELSSLRSEDTAVYFCSSSNWVGSYWGQGTLVTVSS
VL: DVVMTQSPLSLPVTLGQPASISCKSSQSLLESDGKTYLNWLQQRPGQSPRRLIYLVSRLDSGVPDRFTGSGSGTDFTLKISRVEAEDVGVYYCWQGTHLPQTFGGGTKVEIK
notes: as for B2
B7: humanized 5H10 VH2/VK3 (antibody, human IgG4, V domains shown)
VH: QVQLVQSGAEVKKPGSSVKISCKSSGYAFSSYWMNWVKQRPGQGLEWIGQIYPGDGDTHYNGKFKGKATLTADKSTSTAYMELSSLRSEDTAVYFCSSSNWVGSYWGQGTLVTVSS
VL: DVVMTQSPLSLPVTLGQPASISCKSSQSLLESDGKTYLNWLQQRPGQSPRRLIYLVSRLDSGVPDRFSGSGSGTDFTLKISRVEAEDVGVYYCWQGTHLPQTFGGGTKVEIK
notes: as for B2
B8: humanized 5H10 VH4/VK2 (antibody, human IgG4, V domains shown)
VH: QVQLVQSGAEVKKPGSSVKVSCKSSGYAFSSYWMNWVRQRPGQGLEWIGQIYPGDGDTHYNGKFKGRVTITADKSTSTAYMELSSLRSEDTAVYFCSSSNWVGSYWGQGTLVTVSS
VL: DVVMTQSPLSLPVTLGQPASISCKSSQSLLESDGKTYLNWLQQRPGQSPRRLIYLVSRLDSGVPDRFTGSGSGTDFTLKISRVEAEDVGVYYCWQGTHLPQTFGGGTKVEIK
notes: as for B2

T1 sequence (P21583 26-273 limits assumed): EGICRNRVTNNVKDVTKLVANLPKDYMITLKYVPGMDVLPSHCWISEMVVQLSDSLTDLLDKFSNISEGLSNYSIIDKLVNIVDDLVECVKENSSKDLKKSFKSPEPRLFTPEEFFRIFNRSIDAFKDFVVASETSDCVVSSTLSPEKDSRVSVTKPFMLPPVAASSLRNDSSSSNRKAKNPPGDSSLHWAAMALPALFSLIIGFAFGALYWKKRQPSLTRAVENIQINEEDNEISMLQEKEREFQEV

One experiment concerns the target T1, human stem cell factor isoform SCF248 (hSCF248) (human, UniProt P21583 26-273).
T1 construct: also called soluble SCF
In words: flow cytometry, directly labelled antibody on Sl/Sl4 hSCF248 cells. Here is the method:
Binding of the labeled antibody to the cells was assessed by flow cytometry.
Background: In flow cytometry, cells or beads pass a laser one at a time.
Consider B1, for which the binding result is “binds”.

In another experiment the target is T1, human stem cell factor isoform SCF248 …. Description: binding score on Sl/Sl4 hSCF248 cells.
As for B2, the binding result was “binds”.

For B3, the binding result is “binds”.

Turning to B4, the binding result is “binds”.

For the molecule B5, the binding result was “binds”.

As for B6, the binding result is “binds”.

Regarding B7, the binding result is on record as “binds”.

As to B8, the binding result is recorded as “binds”.
